Results from PMC10457384 (2023).

What was measured:
Max 37-83 [1] = target: T1, Max 37-83 (Homo sapiens, UniProt P61244); test: single-molecule SiNW-FET electrical recording (pH 6.5)
T1 chain: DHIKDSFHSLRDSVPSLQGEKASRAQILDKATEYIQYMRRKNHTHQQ

Max 37-83 [2] = target: T1, Max 37-83; test: single-molecule SiNW-FET electrical recording (pH 7.4, 37 °C)

In the case of KRRTHNVLERQRRNELKRSFFALRDQIPELENNEKAPKVVILKKA (C-terminal cysteine added to c-Myc, immobilized on nanowire) [c-Myc 370-414], the Kd (Max 37-83 [1]) is reported as 0.067 µM and the Kd (Max 37-83 [2]) is reported as 0.205 µM.
